We go through five molecules from US20240425606A1, “ANTI-IL-11RA ANTIBODIES” (Lassen Therapeutics 1, Inc., priority 2021, published 2024).

One test addresses T1, hIL-11Rα (Homo sapiens, UniProt Q14626).
T1 sequence (Q14626 23-422): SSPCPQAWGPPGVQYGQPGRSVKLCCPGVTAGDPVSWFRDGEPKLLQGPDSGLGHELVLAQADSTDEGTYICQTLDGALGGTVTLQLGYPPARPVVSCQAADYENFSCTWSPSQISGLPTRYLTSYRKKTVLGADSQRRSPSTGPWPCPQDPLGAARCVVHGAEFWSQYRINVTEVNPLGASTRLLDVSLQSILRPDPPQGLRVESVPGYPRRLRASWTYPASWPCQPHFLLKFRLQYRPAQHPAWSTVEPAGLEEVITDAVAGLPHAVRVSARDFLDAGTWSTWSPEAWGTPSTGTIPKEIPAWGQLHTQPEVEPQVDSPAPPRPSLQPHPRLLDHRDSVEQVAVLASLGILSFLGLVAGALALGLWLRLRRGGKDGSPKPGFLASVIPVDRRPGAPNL
The test can be described thus: Kinetic binding analysis by biolayer interferometry (protein G biosensors, Octet RED96e). As to the method: Association was carried out in the presence of a 2-fold dilution series of hIL-11Rα and was allowed to proceed for 120 seconds; dissociation was measured for 300 to 1200 seconds.

For test [1], the system named is IL-11 signaling in STAT3 Reporter (Luciferase)—HEK293 cell line. As to the kind of experiment: Cell-based STAT3 reporter (luciferase) assay for inhibiting IL-11 signaling. Set-up: species or system human. The settings on record: compared with TS7 and 8E2. As to the method: Further testing of the lead mAbs was carried out using a cell-based reporter assay. IL-11 is reported to signal through the STAT3 and ERK pathways. Therefore, a STAT3 reporter cell line in which firefly luciferase gene expression is driven by STAT3 response elements located upstream of a minimal TATA promoter was selected to analyze mAb functional activity. In these cells, IL-11 can activate the endogenous STAT3 allowing it to bind to the STAT3 response elements, inducing transcription of the luciferase reporter gene and resulting in readily detectable luciferase expression. Antibodies to IL-11R which block IL-11 signaling should inhibit expression of IL-11 driven luciferase in these cells.
The STAT3 Reporter (Luciferase)—HEK293 cell line (BPS Bioscience, catalog #79800-P) was grown, passaged, and assayed as per manufacturer's protocols. Cells were added at 25,000 cells per well in a 96-well microtiter dish and incubated at 37° C. for 30-45 min. in 5% CO2 humidified air. Anti-IL-11R mAbs were added as a 3-fold dilution series in duplicate columns or rows, and plates were returned to the incubator for an additional 1 h at 37° C. after which 40 ng/mL IL-11 was added to each well to initiate the signal transduction cascade and luciferase production. Plates were incubated for 18-24 hours at 37° C. and luciferase was detected using a One-Step Luciferase Assay System (BPS Bioscience, cat. no. 60690-1) as per manufacturer's instructions.

In test [2] the target is T2, hIL-1 IR (Homo sapiens, UniProt Q14626).
T2 sequence (Q14626 23-422): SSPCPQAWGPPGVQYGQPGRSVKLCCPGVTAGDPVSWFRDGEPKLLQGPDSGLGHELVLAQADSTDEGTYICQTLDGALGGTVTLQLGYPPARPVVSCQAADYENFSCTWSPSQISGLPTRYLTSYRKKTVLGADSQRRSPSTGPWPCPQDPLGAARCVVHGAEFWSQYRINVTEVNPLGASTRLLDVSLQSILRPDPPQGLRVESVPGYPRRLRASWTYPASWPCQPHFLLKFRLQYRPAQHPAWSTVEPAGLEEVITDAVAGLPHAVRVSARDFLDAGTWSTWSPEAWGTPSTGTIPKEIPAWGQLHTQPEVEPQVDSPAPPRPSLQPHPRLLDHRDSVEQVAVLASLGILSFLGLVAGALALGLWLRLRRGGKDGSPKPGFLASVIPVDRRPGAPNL
The test can be described thus: Alternate biolayer interferometry assay (AHC biosensors) ranking mAbs 16-32 against mAb5. It is filed as binding. The settings on record: for ka: association 120 s; for kd: dissociation 1200 s; for qualitative assessment: compared to mAb5. The source says:
A further series of antibodies were designed in which the residue at Kabat position 31 of the heavy chain was varied (mAbs 16-32). In this case an alternate biolayer interferometry assay was used to initially rank the antibodies compared to mAb5, the closest relative in sequence to mAbs 16-32. MAbs were loaded onto anti-human constant domain (AHC) biosensors (FortdBio) in 10× kinetics buffer consisting of PBS, 0.1% BSA, 0.02% Tween 20 for 120 s to achieve a spectral shift value of 0.8 to 1.2 nm. Association was carried out in the presence of 2-fold dilution series of hIL-1 IR and was allowed to proceed for 120 s. Dilution series started 10 nM. The dissociation in 10× kinetics buffer for 1200 s. Binding kinetic measurements were taken on an Octet RED96e instrument.
A general note: In BLI a coated tip is dipped into the sample, and binding shifts an interference pattern.

The subject of test [3] is type VI collagen formation (PRO-C6) in fibrotic human PCLS. As to the kind of experiment: Fibrotic human precision-cut lung slice (PCLS) model, PRO-C6 biomarker of ECM remodeling. It is filed as cell-based. The settings on record: 48 hours. As to the method:
Studies were performed to evaluate the effect of the mAb5 antibody on biomarkers reflecting ECM remodeling in a fibrotic human precision-cut lung slice (PCLS) model. The anti-fibrotic effect was investigated at three different concentrations in human ex vivo lung tissue slices prepared from pulmonary fibrosis patients.
Tissue slices were prepared from the subpleural and central region of the fibrotic lung from two human end-stage donors with pulmonary fibrosis (IPF and secondary fibrosis) (see, for example, Hess et al., Toxicol In Vitro. 32:347-61, 2016). For both donors, lung tissue samples from two different regional areas (subpleural and central) were used to generate tissue cores used for PCLS. Adjacent cores were used to achieve serial PCLS for the analysis of one treatment as compared to medium treated PCLS from the same cores. This enables the comparison of densely packed fibrotic areas with fibrotic foci with less affected areas. To ensure the fibrotic status, clinical/demographic information for each patient is provided.
Each treatment was tested with three replicates for each lung region and for each donor.
Preparation and incubation of precision-cut lung slices. Lung lobes were canuled and filled with 37° C. warm 2% low-melting agarose/medium solution. Filled lobes were cooled on ice to polymerise agarose. Tissue cores with a diameter of 8 mm were prepared and cut into approximately 300 μm thick slices using a microtome (Krumdieck tissue slicer, Alabama Research and Development, Muniford, AL, USA or Vibratome OTS-5000, Science Services GmbH, Munich) in Earle's Balanced Salts Solution (EBSS). Tissue slices were incubated in Dulbecco's modified Eagle's medium/nutrient mixture F-12 Ham (DMEM) with L-glutamine and 15 mM HEPES without phenol red. Tissue slices were transferred into petri dishes and washed with DMEM for 2 hours. Medium was changed four times every 30 minutes in order to remove cell debris.
Two PCLS per well were left over night in 500 μL DMEM in 24-well plates for a final washing step. Next day, PCLS were treated with experimental treatments or controls (see Table E5) in 250 μl DMEM/F-12 culture medium for 48 hours under normal cell culture conditions (37° C., 5% CO2). Medium contained 100 units/mL penicillin and 100 μg/mL streptomycin and was not supplemented with fetal calf serum.
After incubation for 48 hours, supernatants were collected, proteinase inhibitor cocktail (0.2%) was added and samples were frozen to −80° C. Additionally, the two PCLS from each well were transferred to a 2 mL safe-lock tube, snap-frozen in liquid nitrogen immediately, and stored at −80° C. Samples from the three replicates for each condition were not pooled.
Extracellular matrix remodeling evaluation. Biomarkers that reflect ECM remodeling were assessed in supernatant by Nordic Bioscience using the following competitive ELISA: PRO-C6 (C-terminal of type VI collagen C5 domain released as type VI collagen is incorporated into the matrix; measured on mesoscale platform [hsPRO-C6]): Reflects type VI collagen formation. Type VI collagen is a beaded filament collagen mainly found in the interface between the interstitial matrix and the basement membrane.
Statistics. […] Pooled data are presented as percentage of the “no treatment” control, calculated for individual regions and donors. Statistical significant differences were evaluated on pooled data by Kruskal-Wallis with Dunn's multiple comparisons test, comparing to the “no treatment” control. […]

Test [4] deals with T2, hIL-1 IR. As to the kind of experiment: Alternate biolayer interferometry assay (AHC biosensors) ranking mAbs 16-32 against mAb5. Format: binding. The following applies: compared to mAb5.

“Also recorded” adds a separate entry of the source. A value given as a limit tells only on which side of the number the result lay.

B1: mAb5: anti-IL-11Rα antibody; VH SEQ ID NO: 201, VL SEQ ID NO: 202; human IgG4 (S228P), kappa light chain (antibody, V domains shown)
VH: EVQLLESGGGLVQPGGSLRLSCAASGFTFSWYSMTWVRQAPGKGLEWVSSIVPYGDLTQYADSVKGRFTISRDNSKNTLYLQMNSLRAEDTAVYYCAKGPGWGSFDLWGRGTLVTVSS
VL: DIQMTQSPSSLSASVGDRVTITCQASQDINNYLNWYQQKPGKAPKLLIYDASNLQTGVPSRFSGSGSGTDFTFTISSLQPEDIATYYCQQHESQSPTFGPGTKVDIK
modifications: human IgG4 S228P and kappa constant regions; mAb5 VH Chain; mAb5 VL Chain
notes: anti-IL-11Rα antibody; human IgG4 (S228P), kappa light chain
As for B1, the “binding affinity (in words)” value with hIL-11Rα (beyond the ability of the instrument to determine an accurate off-rate (kd)) was “very high binding affinity”. Besides, the ka was 63700 M⁻¹ s⁻¹ with hIL-11Rα (protein G biosensors, association 120 seconds) and 490000 M⁻¹ s⁻¹ with hIL-1 IR [2]. Also, the kd with hIL-11Rα (protein G biosensors, dissociation 300 to 1200 seconds) is less than 1e-07 s⁻¹; in the test with hIL-1 IR [2], 2.5e-05 s⁻¹. For the same molecule, the “relative potency at inhibiting IL-11 signaling (in words)” value in test [1] is on record as “more potent at inhibiting IL-11 signaling than either of TS7 or 8E2”. Also, in test [3] (fibrotic human PCLS), the “effects on ECM remodeling” value is recorded as “better effects on ECM remodeling relative to the approved therapy nintedanib”. Moreover, the “dose dependence of PRO-C6 reduction” value in test [3] (mAb5 0.3, 3.0, 30 μg/mL) is “dose-dependent manner; also recorded: dose-related reductions”. For the same molecule, in test [3] (pooled data all donors and regions, mAb5 0.3, 3.0, 30 μg/mL, nintedanib 1 μM, isotype control 30 μg/mL), the “median levels of PRO-C6 compared to the no treatment (media) control” value is listed as “decreased”.

B2: mAb31: anti-IL-11Rα antibody; VH SEQ ID NO: 253, VL SEQ ID NO: 254; heavy chain Kabat position 31 variant of mAb5 (antibody, V domains shown)
VH: EVQLLESGGGLVQPGGSLRLSCAASGFTFSVYSMTWVRQAPGKGLEWVSSIVPYGDLTQYADSVKGRFTISRDNSKNTLYLQMNSLRAEDTAVYYCAKGPGWGSFDLWGRGTLVTVSS
VL: DIQMTQSPSSLSASVGDRVTITCQASQDINNYLNWYQQKPGKAPKLLIYDASNLQTGVPSRFSGSGSGTDFTFTISSLQPEDIATYYCQQHESQSPTFGPGTKVDIK
modifications: mAb31 VH Chain; mAb31 VL Chain
notes: anti-IL-11Rα antibody; heavy chain Kabat position 31 variant of mAb5
As for B2, in the test with hIL-1 IR [2], the ka is 690000 M⁻¹ s⁻¹, the qualitative assessment entry is recorded as “improved/” and the kd result is “off-scale”. The “potency by more detailed kinetic measurements (in words)” value in the test with hIL-1 IR [4] is on record as “further improved potency”.

B3: mAb29: anti-IL-11Rα antibody; VH SEQ ID NO: 249, VL SEQ ID NO: 250; heavy chain Kabat position 31 variant of mAb5 (antibody, V domains shown)
VH: EVQLLESGGGLVQPGGSLRLSCAASGFTFSSYSMTWVRQAPGKGLEWVSSIVPYGDLTQYADSVKGRFTISRDNSKNTLYLQMNSLRAEDTAVYYCAKGPGWGSFDLWGRGTLVTVSS
VL: DIQMTQSPSSLSASVGDRVTITCQASQDINNYLNWYQQKPGKAPKLLIYDASNLQTGVPSRFSGSGSGTDFTFTISSLQPEDIATYYCQQHESQSPTFGPGTKVDIK
modifications: mAb29 VH Chain; mAb29 VL Chain
notes: as for B2
For the molecule B3, in the test with hIL-1 IR [2], the ka worked out at 610000 M⁻¹ s⁻¹, the qualitative assessment entry is on record as “improved/” and the kd is 1.8e-05 s⁻¹. The “potency by more detailed kinetic measurements (in words)” value with hIL-1 IR [4] was “further improved potency”.

B4: mAb21: anti-IL-11Rα antibody; VH SEQ ID NO: 233, VL SEQ ID NO: 234; heavy chain Kabat position 31 variant of mAb5 (antibody, V domains shown)
VH: EVQLLESGGGLVQPGGSLRLSCAASGFTFSHYSMTWVRQAPGKGLEWVSSIVPYGDLTQYADSVKGRFTISRDNSKNTLYLQMNSLRAEDTAVYYCAKGPGWGSFDLWGRGTLVTVSS
VL: DIQMTQSPSSLSASVGDRVTITCQASQDINNYLNWYQQKPGKAPKLLIYDASNLQTGVPSRFSGSGSGTDFTFTISSLQPEDIATYYCQQHESQSPTFGPGTKVDIK
modifications: mAb21 VH Chain; mAb21 VL Chain
notes: as for B2
Turning to B4, in the test with hIL-1 IR [2], the ka was determined as 750000 M⁻¹ s⁻¹, the qualitative assessment entry is reported as “improved/” and the kd entry is on record as “off-scale”. In the test with hIL-1 IR [4], the “potency by more detailed kinetic measurements (in words)” value is recorded as “further improved potency”.

B5: mAb23: anti-IL-11Rα antibody; VH SEQ ID NO: 237, VL SEQ ID NO: 238; heavy chain Kabat position 31 variant of mAb5 (antibody, V domains shown)
VH: EVQLLESGGGLVQPGGSLRLSCAASGFTFSKYSMTWVRQAPGKGLEWVSSIVPYGDLTQYADSVKGRFTISRDNSKNTLYLQMNSLRAEDTAVYYCAKGPGWGSFDLWGRGTLVTVSS
VL: DIQMTQSPSSLSASVGDRVTITCQASQDINNYLNWYQQKPGKAPKLLIYDASNLQTGVPSRFSGSGSGTDFTFTISSLQPEDIATYYCQQHESQSPTFGPGTKVDIK
modifications: mAb23 VH Chain; mAb23 VL Chain
notes: as for B2
Regarding B5, in the test with hIL-1 IR [2], the ka was found to be 720000 M⁻¹ s⁻¹, the qualitative assessment result was “improved/” and the kd entry was “off-scale”. The “potency by more detailed kinetic measurements (in words)” value with hIL-1 IR [4] is on record as “further improved potency”.
